From patent publication US20200317779A1
Residue numbers refer to the chain shown, from its start.

B1: D09 (antibody, human IgG1, lambda, L234A L235A, V domains shown)
VH: EVQLVESGGGLVQPGGSLKLSCAASGFTFNTYAMNWVRQASGKGLEWVGRIRSKYNNYATYYADSVKDRFTISRDDSQSTLYLQMNSLKTEDTAVYYCVRHGNFGNSYVSWFAYWGQGTLVTVSS
VL: QAVVTQEPSLTVSPGGTVTLTCRSSTGAVTTSNYANWVQQKPGQAPRTLIYGTNKRAPWTPARFSGSLLGGKAALTLSGAQPEDEAEYYCALWYSNLWVFGGGTKLTVLG
B2: D10 (antibody, human IgG1, lambda, L234A L235A, V domains shown)
VH: B1 VH
VL: B1 VL with G71D
B3: D11 (antibody, human IgG1, lambda, L234A L235A, V domains shown)
VH: B1 VH
VL: B1 VL with Y51G
B4: D12 (antibody, human IgG1, lambda, L234A L235A, V domains shown)
VH: B1 VH
VL: B1 VL with Y51G, G71D
B5: D13 (antibody, human IgG1, lambda, L234A L235A, V domains shown)
VH: B1 VH
VL: B1 VL with T48G
B6: D14 (antibody, human IgG1, lambda, L234A L235A, V domains shown)
VH: B1 VH
VL: B1 VL with T48G, G71D
B7: E01 (antibody, human IgG1, lambda, L234A L235A, V domains shown)
VH: B1 VH with G49A, Q78K, S79N, L81A
VL: B1 VL with V38F
B8: E02 (antibody, human IgG1, lambda, L234A L235A, V domains shown)
VH: B1 VH with G49A, Q78K, S79N, L81A
VL: B1 VL with V38F, G71D
B9: A01 (antibody, human IgG1, lambda, L234A L235A, V domains shown)
VH: B1 VH with Q78K, S79N, L81A
VL: B1 VL with V38F
B10: E03 (antibody, human IgG1, lambda, L234A L235A, V domains shown)
VH: B1 VH with G49A, Q78K, S79N, L81A
VL: B1 VL with V38F, Y51G
B11: E04 (antibody, human IgG1, lambda, L234A L235A, V domains shown)
VH: B1 VH with G49A, Q78K, S79N, L81A
VL: B1 VL with V38F, Y51G, G71D
B12: E05 (antibody, human IgG1, lambda, L234A L235A, V domains shown)
VH: B1 VH with G49A, Q78K, S79N, L81A
VL: B1 VL with V38F, T48G
B13: E06 (antibody, human IgG1, lambda, L234A L235A, V domains shown)
VH: B1 VH with G49A, Q78K, S79N, L81A
VL: B1 VL with V38F, T48G, G71D
B14: E07 (antibody, human IgG1, lambda, L234A L235A, V domains shown)
VH: B1 VH with G49A, Q78K, S79N, L81A
VL: B1 VL with V38F, T48G, Y51G
B15: E08 (antibody, human IgG1, lambda, L234A L235A, V domains shown)
VH: B1 VH with G49A, Q78K, S79N, L81A
VL: B1 VL with V38F, T48G, Y51G, G71D
B16: E09 (antibody, human IgG1, lambda, L234A L235A, V domains shown)
VH: B1 VH with G49A, Q78K, S79N, L81A
VL: B1 VL
B17: E10 (antibody, human IgG1, lambda, L234A L235A, V domains shown)
VH: B1 VH with G49A, Q78K, S79N, L81A
VL: B1 VL with G71D
B18: E11 (antibody, human IgG1, lambda, L234A L235A, V domains shown)
VH: B1 VH with G49A, Q78K, S79N, L81A
VL: B1 VL with Y51G
B19: E12 (antibody, human IgG1, lambda, L234A L235A, V domains shown)
VH: B1 VH with G49A, Q78K, S79N, L81A
VL: B1 VL with Y51G, G71D
B20: E13 (antibody, human IgG1, lambda, L234A L235A, V domains shown)
VH: B1 VH with G49A, Q78K, S79N, L81A
VL: B1 VL with T48G
B21: E14 (antibody, human IgG1, lambda, L234A L235A, V domains shown)
VH: B1 VH with G49A, Q78K, S79N, L81A
VL: B1 VL with T48G, G71D
B22: F01 (antibody, human IgG1, lambda, L234A L235A, V domains shown)
VH: B1 VH with G49A, Q78K, S79N
VL: B1 VL with V38F
B23: F02 (antibody, human IgG1, lambda, L234A L235A, V domains shown)
VH: B1 VH with G49A, Q78K, S79N
VL: B1 VL with V38F, G71D
B24: F03 (antibody, human IgG1, lambda, L234A L235A, V domains shown)
VH: B1 VH with G49A, Q78K, S79N
VL: B1 VL with V38F, Y51G
B25: F04 (antibody, human IgG1, lambda, L234A L235A, V domains shown)
VH: B1 VH with G49A, Q78K, S79N
VL: B1 VL with V38F, Y51G, G71D
B26: F05 (antibody, human IgG1, lambda, L234A L235A, V domains shown)
VH: B1 VH with G49A, Q78K, S79N
VL: B1 VL with V38F, T48G
B27: F06 (antibody, human IgG1, lambda, L234A L235A, V domains shown)
VH: B1 VH with G49A, Q78K, S79N
VL: B1 VL with V38F, T48G, G71D
B28: A09 (antibody, human IgG1, lambda, L234A L235A, V domains shown)
VH: B1 VH with Q78K, S79N, L81A
VL: B1 VL
B29: F07 (antibody, human IgG1, lambda, L234A L235A, V domains shown)
VH: B1 VH with G49A, Q78K, S79N
VL: B1 VL with V38F, T48G, Y51G
B30: F08 (antibody, human IgG1, lambda, L234A L235A, V domains shown)
VH: B1 VH with G49A, Q78K, S79N
VL: B1 VL with V38F, T48G, Y51G, G71D
B31: F09 (antibody, human IgG1, lambda, L234A L235A, V domains shown)
VH: B1 VH with G49A, Q78K, S79N
VL: B1 VL
B32: F10 (antibody, human IgG1, lambda, L234A L235A, V domains shown)
VH: B1 VH with G49A, Q78K, S79N
VL: B1 VL with G71D
B33: F11 (antibody, human IgG1, lambda, L234A L235A, V domains shown)
VH: B1 VH with G49A, Q78K, S79N
VL: B1 VL with Y51G
B34: F12 (antibody, human IgG1, lambda, L234A L235A, V domains shown)
VH: B1 VH with G49A, Q78K, S79N
VL: B1 VL with Y51G, G71D
B35: F13 (antibody, human IgG1, lambda, L234A L235A, V domains shown)
VH: B1 VH with G49A, Q78K, S79N
VL: B1 VL with T48G
B36: F14 (antibody, human IgG1, lambda, L234A L235A, V domains shown)
VH: B1 VH with G49A, Q78K, S79N
VL: B1 VL with T48G, G71D
B37: A10 (antibody, human IgG1, lambda, L234A L235A, V domains shown)
VH: B1 VH with Q78K, S79N, L81A
VL: B1 VL with G71D
B38: G01 (antibody, human IgG1, lambda, L234A L235A, V domains shown)
VH: B1 VH with G49A, L81A
VL: B1 VL with V38F
B39: G02 (antibody, human IgG1, lambda, L234A L235A, V domains shown)
VH: B1 VH with G49A, L81A
VL: B1 VL with V38F, G71D
B40: G03 (antibody, human IgG1, lambda, L234A L235A, V domains shown)
VH: B1 VH with G49A, L81A
VL: B1 VL with V38F, Y51G
B41: G04 (antibody, human IgG1, lambda, L234A L235A, V domains shown)
VH: B1 VH with G49A, L81A
VL: B1 VL with V38F, Y51G, G71D

What follows are binders tested against recombinant cynomolgus monkey CD3ε/δ heterodimer (cynomolgus monkey) (UniProt Q95LI5) (assay: ELISA, coated CD3ε/δ).
recombinant cynomolgus monkey CD3ε/δ heterodimer (cynomolgus monkey), sequence (Q95LI5 22-117, stated change not applied, chain 1 of 2): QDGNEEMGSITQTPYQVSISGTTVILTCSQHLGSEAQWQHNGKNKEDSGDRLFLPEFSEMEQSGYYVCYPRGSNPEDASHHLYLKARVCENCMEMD
recombinant cynomolgus monkey CD3ε/δ heterodimer (cynomolgus monkey), sequence (Q95LI8 22-105, stated change not applied, chain 2 of 2, further chain): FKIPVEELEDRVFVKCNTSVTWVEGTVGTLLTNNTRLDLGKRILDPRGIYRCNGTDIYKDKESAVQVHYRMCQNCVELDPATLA

| Binder | Absorbance (450 nm) |
| --- | --- |
| B1 | 0.098 |
| B2 | 0.113 |
| B3 | 0.134 |
| B4 | 0.114 |
| B5 | 0.532 |
| B6 | 0.113 |
| B7 | 0.078 |
| B8 | 0.07 |
| B9 | 0.098 |
| B10 | 0.076 |
| B11 | 0.067 |
| B12 | 0.068 |
| B13 | 0.086 |
| B14 | 0.115 |
| B15 | 0.099 |
| B16 | 0.084 |
| B17 | 0.065 |
| B18 | 0.075 |
| B19 | 0.064 |
| B20 | 0.114 |
| B21 | 0.078 |

| Binder | Absorbance (450 nm) |
| --- | --- |
| B22 | 0.086 |
| B23 | 0.076 |
| B24 | 0.101 |
| B25 | 0.069 |
| B26 | 0.075 |
| B27 | 0.096 |
| B28 | 0.05 |
| B29 | 0.163 |
| B30 | 0.18 |
| B31 | 0.084 |
| B32 | 0.091 |
| B33 | 0.104 |
| B34 | 0.077 |
| B35 | 0.151 |
| B36 | 0.1 |
| B37 | 0.066 |
| B38 | 0.096 |
| B39 | 0.069 |
| B40 | 0.088 |
| B41 | 0.063 |

Each binder was assayed against recombinant human CD3ε/δ heterodimer (human) (UniProt P07766) (assay: ELISA, coated CD3ε/δ).
recombinant human CD3ε/δ heterodimer (human), sequence (P07766 23-126, stated change not applied, chain 1 of 2): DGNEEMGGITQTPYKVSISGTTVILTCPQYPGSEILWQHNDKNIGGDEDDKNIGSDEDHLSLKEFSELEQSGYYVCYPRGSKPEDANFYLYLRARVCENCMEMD
recombinant human CD3ε/δ heterodimer (human), sequence (P04234 22-105, stated change not applied, chain 2 of 2, further chain): as the sequence (Q95LI8 22-105, stated change not applied, chain 2 of 2, further chain) above, with V5I, K15N, V20I, T32S, N33D, N34I, A64T, N74S, L83V counted along it

| Binder | Absorbance (450 nm) |
| --- | --- |
| B1 | 0.122 |
| B2 | 0.117 |
| B3 | 0.138 |
| B4 | 0.095 |
| B5 | 0.569 |
| B6 | 0.149 |
| B7 | 0.1 |
| B8 | 0.095 |
| B9 | 0.152 |
| B10 | 0.134 |
| B11 | 0.087 |
| B12 | 0.085 |
| B13 | 0.112 |
| B14 | 0.109 |
| B15 | 0.074 |
| B16 | 0.096 |
| B17 | 0.083 |
| B18 | 0.098 |
| B19 | 0.088 |
| B20 | 0.139 |
| B21 | 0.105 |

| Binder | Absorbance (450 nm) |
| --- | --- |
| B22 | 0.118 |
| B23 | 0.093 |
| B24 | 0.128 |
| B25 | 0.084 |
| B26 | 0.105 |
| B27 | 0.115 |
| B28 | 0.092 |
| B29 | 0.133 |
| B30 | 0.134 |
| B31 | 0.099 |
| B32 | 0.118 |
| B33 | 0.138 |
| B34 | 0.09 |
| B35 | 0.192 |
| B36 | 0.114 |
| B37 | 0.097 |
| B38 | 0.113 |
| B39 | 0.146 |
| B40 | 0.098 |
| B41 | 0.129 |
